According to patent publication US11752211B2, “Fatty acids and their use in conjugation to biomolecules” (NOVARTIS AG, priority 2014, dated 2023):
Starred links: 1 amine or outer side, 2 acyl side, 3 side chain; linkers in the order of their positions; H or OH if unused. Positions of bridges follow the written chain, without caps; N, C: chain ends. Non-standard residues stand in square brackets, D forms with d. Residues, ends and D or L forms follow the SMILES beside them. Groups on a side chain read outwards from the residue. *: point of attachment. PEG24 = NCCOCCOCCOCCOCCOCCOCCOCCOCCOCCOCCOCCOCCOCCOCCOCCOCCOCCOCCOCCOCCOCCOCCOCCOCCC(=O)O; Malonyl(C11H23,(CH2)10COOH) = CCCCCCCCCCCC(CCCCCCCCCCC(=O)O)(C(=O)O)C(=O)*; NGly(3-aminopropyl) = O=C(CN(CCCN[*:3])[*:1])[*:2]; pGlu = O=C1CC[C@@H](C(=O)O)N1; NHPhenethyl = c1ccc(CCN*)cc1; dNle = CCCC[C@@H](N)C(=O)O; Nle = CCCC[C@H](N)C(=O)O; Sar = CNCC(=O)O

Assays:
[1] = In vivo plasma stability of APJ agonist conjugates, 1 mg/kg iv; conditions: rat, male Sprague-Dawley rats, 1 mg/kg intravenously, read-out: In vivo Plasma stability t½ (converted)
Experimental: (§1) Conjugate was dissolved in PBS (Phosphate buffered saline) to a concentration of 1 mg/ml to form Dosing solution. Dosing solution was administered intravenously to male Sprague-Dawley rats via lateral tail vein at a volume of 1 ml/kg body weight, corresponding to a dose of 1 mg/kg. Venous blood samples were acquired from a jugular vein catheter at prescribed times after dosing and immediately placed on wet ice. These samples were centrifuged at 4C, with supernatant plasma transferred to a fresh tube for analysis.
• Standard curve preparation: Stock solution was prepared by dissolving peptide conjugate in water to 1 mg/ml. 10 uL of Stock was mixed with 990 uL rat plasma to form a working stock of 10,000 ng/ml in plasma. This was serially diluted in plasma to form standards of 5000, 1000, 500, 100, 50, 10, 5 and 1 ng/ml. • Sample and standard preparation: 25 uL plasma sample or standard was transferred to a clean plate. 150 uL acetonitrile:MeOH (1:1) containing 100 ng/ml glyburide as internal standard was added to each vial and the plate vortexed to mix the contents. The plate was centrifuged at 4000 rpm at 4 C. 125 uL supernatant was transferred to a clean plate, mixed with 50 uL water and analyzed by LC/MS.

[2] = molecular target: T1, OT (Homo sapiens, UniProt P30559); test: OT Calcium flux agonist assay (GPCRProfiler); assay type: cell-based; conditions: read-out: OT Ca^2+ Flux EC50
T1 sequence (P30559 1-389): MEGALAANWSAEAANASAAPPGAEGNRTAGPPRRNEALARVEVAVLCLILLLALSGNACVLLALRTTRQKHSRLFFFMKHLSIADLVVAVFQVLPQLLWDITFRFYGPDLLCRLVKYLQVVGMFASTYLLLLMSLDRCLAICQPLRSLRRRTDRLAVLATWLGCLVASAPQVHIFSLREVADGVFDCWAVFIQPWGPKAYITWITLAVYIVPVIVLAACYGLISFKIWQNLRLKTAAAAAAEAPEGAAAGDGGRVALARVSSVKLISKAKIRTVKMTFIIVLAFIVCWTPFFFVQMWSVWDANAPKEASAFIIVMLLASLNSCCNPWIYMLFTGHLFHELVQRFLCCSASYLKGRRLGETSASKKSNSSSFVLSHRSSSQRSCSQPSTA
Experimental: Supplied compounds were prepared in DMSO and ultimately prepared in the Eurofins Discovery Services GPCRProfiler® Assay Buffer to concentrations that were three-fold higher than the final assay concentration. Similarly, vehicle controls and positive controls were prepared to ensure all assays were properly controlled.
All wells were prepared using the Eurofins Discovery Services GPCRProfiler® Assay Buffer. The GPCRProfiler® Assay Buffer was a modified Hanks Balanced Salt Solution (HBSS) where HBSS was supplemented to contain 20 mM HEPES and 2.5 mM Probenecid at pH7.4.
Compound(s) supplied were plated in duplicate for each concentration assayed.
Reference agonist, oxytocin, was prepared in a similar manner to serve as assay control. The reference agonist, oxytocin, was included at Emax (the concentration where the reference agonist elicited a maximal response).
The agonist assay was conducted on a […] instrument where the test compound(s), vehicle controls, and reference agonist were added to the assay plate after a fluorescence/luminescence baseline was established. […]
All plates were subjected to appropriate baseline corrections. Once baseline corrections were processed, maximum fluorescence/luminescence values were exported and data manipulated to calculate percentage activation and percentage inhibition. […]

[3] = In vivo plasma stability of oxytocin conjugate, 3 mg/kg iv; design: species or system rats; conditions: 3 mg/kg intravenously; for half-life: rat, plasma, iv, male Sprague-Dawley rats, read-out: In vivo Plasma stability t½ (converted)
Experimental: as §1, with “concentration of 3 mg/ml to” for “concentration of 1 mg/ml to”, “dose of 3 mg/kg. Venous” for “dose of 1 mg/kg. Venous”
Standard curve preparation: Stock solution was prepared by dissolving peptide conjugate and peptide into two separate vials in dimethylsulfoxide to 1 mg/ml. 10 uL of each stock was mixed with 980 uL rat plasma to form a working stock of 10,000 ng/ml in plasma. This was serially diluted in plasma to form standards of 5000, 1000, 500, 100, 50, 10, 5, 1, 0.5, and 0.1 ng/ml. Sample and standard preparation: 25 uL plasma sample or standard was transferred to a clean plate. 150 uL acetonitrile containing 100 ng/ml glyburide as internal standard was added to each vial and the plate vortexed to mix the contents. The plate was centrifuged at 4000 rpm at 4 C. 125 uL supernatant was transferred to a clean plate, mixed with 150 uL water and analyzed by LC/MS.

[4] = Material quality check of GDF15 proteins (clipping, methionine oxidation, deamidation); assay type: physicochemical
Description: The AHA-(200-308)-hGDF15 (SEQ ID NO: 7) was designed to remove the clipping site observed within the native protein as well as to remove the potential methioinine (M1) formylation site and the N-199 deamidation site.

[5] = tested on: Diet-induced obese male mice (C57BL/6NTac); test: DIO mice single 0.5 mg/kg sc dose: food intake and body weight; conditions: exp 1 / exp 2 = separate in vivo experiments
Experimental: (§2) All animal studies described in this document were approved by the Novartis Institutes for Biomedical Research Animal Care and Use Committee in accordance with local and federal regulations and guidelines. Diet-induced obese male mice (C57BL/6NTac) were purchased from Taconic and fed a 60% fat diet (Research Diets D12492i) from 6-weeks of age onward. Upon arrival, mice were housed one animal per cage under a 12 h:12 h reverse light-dark cycle. Animals all received a minimum of 1 week acclimation prior to any use. Mice were typically studied between 3-4 months of age. […] On the day of study, mice were placed in fresh cages, and the old food removed. Approximately 1 h later and just prior to the dark cycle, mice received a single subcutaneous dose of either vehicle (30 mM sodium acetate, pH 4) or a lipid conjugated GDF15 analog (0.5 mg/kg). After all injections are completed, the mice were reweighed and a defined amount of food returned ([…] per mouse). In surrogate animals treated as described above, plasma was collected at the indicated times, and GDF15 levels were measured by ELISA as per the manufacturer's instructions (R&D Systems Quantikine Human GDF15 Immunoassay; DGD150). The activity and half-life of the conjugates of the invention were tested in the assay described supra.

[6] = DIO mice single 0.5 mg/kg sc dose: plasma GDF15 levels by ELISA (PK); conditions: exp 1 / exp 2 = separate in vivo experiments
Experimental: as §2

[7] = clipping site R9/N10 (for the AHA protein: none detected)

CCCC[C@@H](NC(=O)[C@@H]1CCCN1C(=O)CNC(=O)[C@H](CCCCN)NC(=O)[C@@H]1CSSC[C@H](NC(=O)[C@@H]2CCCN2C(=O)[C@H](CCCNC(=N)N)NC(=O)[C@@H]2CCC(=O)N2)C(=O)N[C@@H](CC(C)C)C(=O)N[C@@H](CO)C(=O)N1)C(=O)NCCc1ccccc1 [pE-R—P—C*-L-S—C*—K-G-P-(D-Nle)-NH(Phenethyl) (disulfide C^4-C^7)] ([pGlu]RPCLSCKGP[dNle]-NHPhenethyl; disulfide 4-7)
half-life ([1]; in vivo): 54 min

CCCC[C@@H]1NC(=O)[C@@H]2CCCN2C(=O)CNC(=O)[C@H](CCCCN)NC(=O)[C@H](Cc2cnc[nH]2)NC(=O)[C@@H](NC(=O)[C@H](CC(C)C)NC(=O)[C@H](CCCNC(=N)N)NC(=O)[C@@H]2CCCN2C(=O)[C@H](CCCNC(=N)N)NC(=O)[C@@H]2CCC(=O)N2)CSSC[C@@H](C(=O)N[C@@H](Cc2ccccc2)C(=O)O)NC1=O [pE-R—P—R-L-C*—H—K-G-P-Nle-C*—F—OH(Disulfide C^6-C^12)] ([pGlu]RPRLCHKGP[Nle]CF-OH; disulfide 6-12)
half-life ([1]; in vivo): 42 min

CC[C@H](C)[C@@H]1NC(=O)[C@H](Cc2ccc(O)cc2)NC(=O)CNC(=O)CC[C@@H](C(=O)N(C)CC(=O)N[C@@H](CC(C)C)C(=O)NCC(N)=O)NC(=O)[C@H](CC(N)=O)NC(=O)[C@H](CCC(N)=O)NC1=O (GYIQNE[Sar]LG-NH2; lactam N-6)
EC50 [2]: 7.8 nM | half-life [3]: 0.6 h

MHHHHHH-ARN-(200-308)-hGDF15: His-tagged hGDF15 with native sequence, compared with AHA variant in material quality check
Methionine oxidation ([4]; M1): M1: 12.0% | N-199 deamidation ([4]; N10): N10: 50.1% | clipping ([4]; clipping site N10/G11): N10/G11 (<1%) | clipping [4, 7]: R9/N10 (<1%)

CCCCCCCCCCCC(CCCCCCCCCCC(=O)O)(C(=O)O)C(=O)NCCOCCOCCOCCOCCOCCOCCOCCOCCOCCOCCOCCOCCOCCOCCOCCOCCOCCOCCOCCOCCOCCOCCOCCOCCC(=O)NCCCN(CC(=O)N[C@@H](CC(C)C)C(=O)NCC(N)=O)C(=O)[C@@H]1CCC(=O)NCC(=O)N[C@@H](Cc2ccc(O)cc2)C(=O)N[C@@H]([C@@H](C)CC)C(=O)N[C@@H](CCC(N)=O)C(=O)N[C@@H](CC(N)=O)C(=O)N1 (stereo partly drawn) [Example 26A] (GYIQNE[NGly(3-aminopropyl)]([PEG24-Malonyl(C11H23,(CH2)10COOH)])LG-NH2; lactam N-6)
EC50 [2]: 8.4 nM | half-life [3]: 46 h | increase in half-life compared to unconjugated oxytocin analog ([3]; rats): 75 fold

C=CCCCCCCCCCC(CCCCCCCCCCC(=O)O)(C(=O)O)C(=O)NCCOCCOCCOCCOCCOCCOCCOCCOCCOCCOCCOCCOCCOCCOCCOCCOCCOCCOCCOCCOCCOCCOCCOCCn1nnc2c1CCC1C(CC2)[C@@H]1COC(=O)NCCCC[C@@H]1NC(=O)[C@H](Cc2c[nH]cn2)NC(=O)[C@@H](NC(=O)[C@H](CC(C)C)NC(=O)[C@H](CCCNC(=N)N)NC(=O)[C@@H]2CCCN2C(=O)[C@H](CCCNC(=N)N)NC(=O)[C@@H]2CCC(=O)N2)CSSC[C@@H](C(=O)N[C@@H](Cc2ccccc2)C(=O)O)NC(=O)[C@H](CCCC)NC(=O)[C@@H]2CCCN2C(=O)CNC1=O (stereo partly drawn) [Example 21A]
half-life ([1]; plasma): 444 min

B1: AHA-(200-308)-hGDF15: GDF15 mutant designed to remove clipping site, methionine formylation site and N-199 deamidation site (protein)
chain: AHAGDHCPLGPGRCCRLHTVRASLEDLGWADWVLSPREVQVTMCIGACPSQFRAANMHAQIKTSLHRLKPDTVPAPCCVPASYNPMVLIQKTDTGVSLQTYDDLLAKDCHCI
modifications: GDF15 mutant, Intermediate 57 AHA-(200-308)- hGDF15
clipping [4, 7]: None

B2: 12: GDF15 conjugate listed in Table 1 only; no example text in the patent (conjugate, UniProt Q99988 195-308, looked up)
Growth/differentiation factor …: ARARNGDHCPLGPGRCCRLHTVRASLEDLGWADWVLSPREVQVTMCIGACPSQFRAANMHAQIKTSLHRLKPDTVPAPCCVPASYNPMVLIQKTDTGVSLQTYDDLLAKDCHCI
modifications: conjugate
Duration of action: Body weight (BW) reduction [5]: 6 to 8 days | Duration of action: Food Intake (FI) reduction [5]: 6 to 8 days

B3: hGDF15: non-conjugated hGDF15 (protein, UniProt Q99988 195-308, looked up)
Growth/differentiation factor …: ARARNGDHCPLGPGRCCRLHTVRASLEDLGWADWVLSPREVQVTMCIGACPSQFRAANMHAQIKTSLHRLKPDTVPAPCCVPASYNPMVLIQKTDTGVSLQTYDDLLAKDCHCI
Duration of action: Body weight (BW) reduction [5]: 1 days | Duration of action: Food Intake (FI) reduction [5]: 1 days | PK (1/2 life) [6]: 1 h
